Here are results for 22 molecules from patent publication US20090298765A1 (Takeda / Millennium, published 2009).

Non-standard residues stand in square brackets, D forms with d. No end group written: not given here. *: point of attachment. Phe(4-F) = N[C@@H](Cc1ccc(F)cc1)C(=O)O; Cyclohexanecarbonyl = O=C(C1CCCCC1)*; Arg(Me) = CNC(=N)NCCC[C@H](N)C(=O)O; 4Pal = N[C@@H](Cc1ccncc1)C(=O)O; d3Pal = N[C@H](Cc1cccnc1)C(=O)O; d4Pal = N[C@H](Cc1ccncc1)C(=O)O; Cha = N[C@@H](CC1CCCCC1)C(=O)O; amidino = N=C(N)*; azaGly = NNC(=O)O

Assay [1] addresses T1, human OT7T175 (metastin receptor) (human, UniProt Q969F8 1-398). Briefly: cell-based or functional assay.
The target of assay [2] is T1, human OT7T175 (metastin receptor). Description: competition with Cy-5 metastin (40-54) on hOT7T175-CHO cells, FMAT. How it is done: hOT7T175-Expressed CHO cells were cultured in MEM-α medium (nucleic acid-free) containing 10% dialyzed serum. The medium was removed and the adhered cells were washed with PBS. Then, PBS containing 5 mM EDTA was added and the cells were scraped from a flask with a cell scraper.
To each well of a 96-Well Black Clear Bottom Microplate (Applied Biosystems, Inc.), 10 μL of assay buffer containing 1% dimethylsulfoxide was added to examine total binding, 10 μL of 10 μM non-labeled peptide (having the same amino acid sequence as that of labeled one) solution diluted with assay buffer to examine non-specific binding, and 10 μL of a test compound diluted with assay buffer to examine a binding inhibition activity of the test compound, and furthermore, 90 μL each of the cell suspension was dispensed to each well. […] Specific binding is calculated as non-specific binding subtracted from total binding. The binding inhibition activity of a test compound is shown by a ratio of the value obtained by subtracting a measured value in presence of a test compound from the total binding to the specific binding.

T1 sequence (Q969F8 whole entry L364H): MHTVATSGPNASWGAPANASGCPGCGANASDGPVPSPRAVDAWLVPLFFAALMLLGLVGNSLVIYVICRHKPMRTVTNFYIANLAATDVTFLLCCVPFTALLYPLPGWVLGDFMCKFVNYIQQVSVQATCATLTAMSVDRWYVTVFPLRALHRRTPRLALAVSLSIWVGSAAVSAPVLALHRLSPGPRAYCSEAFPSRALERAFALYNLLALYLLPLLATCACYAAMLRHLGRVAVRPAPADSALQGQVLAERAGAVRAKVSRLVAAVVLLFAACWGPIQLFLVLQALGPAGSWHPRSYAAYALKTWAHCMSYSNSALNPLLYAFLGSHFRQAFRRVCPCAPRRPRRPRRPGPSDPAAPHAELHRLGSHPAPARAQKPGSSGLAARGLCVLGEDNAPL

B1: des(1)-[D-Pya(3)2,Phe3,AzaGly7,Arg(Me)9]MS10 (peptide)
peptide: [d3Pal]FNSF[azaGly]L[Arg(Me)]F-NH2
modifications: N-terminus assumed
SMILES: CNC(=N)NCCC[C@H](NC(=O)[C@H](CC(C)C)NC(=O)NNC(=O)[C@H](Cc1ccccc1)NC(=O)[C@H](CO)NC(=O)[C@H](CC(N)=O)NC(=O)[C@H](Cc1ccccc1)NC(=O)[C@H](N)Cc1cccnc1)C(=O)N[C@@H](Cc1ccccc1)C(N)=O
notes: also called Compound No. 256
For the molecule B1, the “Ca ion level-increasing activity (FLIPR)” value in assay [1] is 1 x Metastin (1-54). Also, the IC50 in assay [2] turned out to be 22 nM.

B2: des(1)-[D-Pya(3)2,AzaGly7,Arg(Me)9]MS10 (peptide)
peptide: [d3Pal]WNSF[azaGly]L[Arg(Me)]F-NH2
notes: also called Compound No. 289; [D-Pya(3)2,AzaGly7,Arg(Me)9]MS10-(2-10)
B2: the “Ca ion level-increasing activity (FLIPR)” value in assay [1] is 1 x Metastin (1-54). The same molecule returned a half-maximal inhibitory concentration (IC50) in assay [2] of 8.4 nM.

B3: [D-Pya(3)1,D-Asn2,Cha3,AzaGly7,Arg(Me)9]MS10 (peptide)
peptide: [d3Pal][dN][Cha]NSF[azaGly]L[Arg(Me)]F-NH2
modifications: N-terminus assumed
SMILES: CNC(=N)NCCC[C@H](NC(=O)[C@H](CC(C)C)NC(=O)NNC(=O)[C@H](Cc1ccccc1)NC(=O)[C@H](CO)NC(=O)[C@H](CC(N)=O)NC(=O)[C@H](CC1CCCCC1)NC(=O)[C@@H](CC(N)=O)NC(=O)[C@H](N)Cc1cccnc1)C(=O)N[C@@H](Cc1ccccc1)C(N)=O
notes: also called Compound No. 290
For B3, the “Ca ion level-increasing activity (FLIPR)” value in assay [1] is 1 x Metastin (1-54). In assay [2], this molecule gave an IC50 of 1.4 nM.

B4: [D-Pya(3)1,D-Tyr2,Cha3,AzaGly7,Arg(Me)9]MS10 (peptide)
peptide: [d3Pal][dY][Cha]NSF[azaGly]L[Arg(Me)]F-NH2
modifications: N-terminus assumed
SMILES: CNC(=N)NCCC[C@H](NC(=O)[C@H](CC(C)C)NC(=O)NNC(=O)[C@H](Cc1ccccc1)NC(=O)[C@H](CO)NC(=O)[C@H](CC(N)=O)NC(=O)[C@H](CC1CCCCC1)NC(=O)[C@@H](Cc1ccc(O)cc1)NC(=O)[C@H](N)Cc1cccnc1)C(=O)N[C@@H](Cc1ccccc1)C(N)=O
notes: also called Compound No. 291
Consider B4, for which, in assay [1], the “Ca ion level-increasing activity (FLIPR)” value was 2 x Metastin (1-54). The IC50 in assay [2] is 0.41 nM.

B5: [D-Ala1,AzaGly7,Arg(Me)9]MS10 (peptide)
peptide: [dA]NWNSF[azaGly]L[Arg(Me)]F-NH2
modifications: N-terminus assumed
SMILES: CNC(=N)NCCC[C@H](NC(=O)[C@H](CC(C)C)NC(=O)NNC(=O)[C@H](Cc1ccccc1)NC(=O)[C@H](CO)NC(=O)[C@H](CC(N)=O)NC(=O)[C@H](Cc1c[nH]c2ccccc12)NC(=O)[C@H](CC(N)=O)NC(=O)[C@@H](C)N)C(=O)N[C@@H](Cc1ccccc1)C(N)=O
notes: also called Compound No. 259
In the case of B5, the “Ca ion level-increasing activity (FLIPR)” value in assay [1] was 1 x Metastin (1-54). Also, the IC50 in assay [2] stood at 250 nM.

B6: [D-Tyr1,D-Ser2,AzaGly7,Arg(Me)9]MS10 (peptide)
peptide: [dY][dS]WNSF[azaGly]L[Arg(Me)]F-NH2
modifications: N-terminus assumed
SMILES: CNC(=N)NCCC[C@H](NC(=O)[C@H](CC(C)C)NC(=O)NNC(=O)[C@H](Cc1ccccc1)NC(=O)[C@H](CO)NC(=O)[C@H](CC(N)=O)NC(=O)[C@H](Cc1c[nH]c2ccccc12)NC(=O)[C@@H](CO)NC(=O)[C@H](N)Cc1ccc(O)cc1)C(=O)N[C@@H](Cc1ccccc1)C(N)=O
notes: also called Compound No. 287
As to B6, the “Ca ion level-increasing activity (FLIPR)” value in assay [1] was 2 x Metastin (1-54). Besides, the half-inhibitory concentration (IC50) in assay [2] turned out to be 2.3 nM.
[dY][dN]FNSF[azaGly]L[Arg(Me)]F-NH2 (also called Compound No. 257) [[D-Tyr1,D-Asn2,Phe3,AzaGly7,Arg(Me)9]MS10]: in assay [1], the “Ca ion level-increasing activity (FLIPR)” value was 3 x Metastin (1-54). The molecule also gave a 50% inhibitory concentration (IC50) in assay [2] of 40 nM.

B7: [D-Tyr1,D-His2,AzaGly7,Arg(Me)9]MS10 (peptide)
peptide: [dY][dH]WNSF[azaGly]L[Arg(Me)]F-NH2
modifications: N-terminus assumed
SMILES: CNC(=N)NCCC[C@H](NC(=O)[C@H](CC(C)C)NC(=O)NNC(=O)[C@H](Cc1ccccc1)NC(=O)[C@H](CO)NC(=O)[C@H](CC(N)=O)NC(=O)[C@H](Cc1c[nH]c2ccccc12)NC(=O)[C@@H](Cc1c[nH]cn1)NC(=O)[C@H](N)Cc1ccc(O)cc1)C(=O)N[C@@H](Cc1ccccc1)C(N)=O
notes: also called Compound No. 288
For B7, in assay [1], the “Ca ion level-increasing activity (FLIPR)” value is 1 x Metastin (1-54). This molecule also yielded an IC50 in assay [2] of 0.072 nM.
The corresponding values for [dY][dN]TNSF[azaGly]L[Arg(Me)]F-NH2 (also called Compound No. 284) [[D-Tyr1,D-Asn2,Thr3,AzaGly7,Arg(Me)9]MS10] are 1 x Metastin (1-54) and 34 nM.

B8: [D-Tyr1,D-Asn2,Thr3,AzaGly7,Arg(Me)9,Phe(4F)10]MS10 (peptide)
peptide: [dY][dN]TNSF[azaGly]L[Arg(Me)][Phe(4-F)]-NH2
modifications: N-terminus assumed
SMILES: CNC(=N)NCCC[C@H](NC(=O)[C@H](CC(C)C)NC(=O)NNC(=O)[C@H](Cc1ccccc1)NC(=O)[C@H](CO)NC(=O)[C@H](CC(N)=O)NC(=O)[C@@H](NC(=O)[C@@H](CC(N)=O)NC(=O)[C@H](N)Cc1ccc(O)cc1)[C@@H](C)O)C(=O)N[C@@H](Cc1ccc(F)cc1)C(N)=O
notes: also called Compound No. 316
Take B8: in assay [1], the “Ca ion level-increasing activity (FLIPR)” value was 1 x Metastin (1-54). The molecule also registered a half-inhibitory concentration (IC50) in assay [2] of 26 nM.

B9: des(1-2)-Acetyl-[AzaGly7,Arg(Me)9]MS10 (peptide)
peptide: Ac-WNSF[azaGly]L[Arg(Me)]F-NH2
SMILES: CNC(=N)NCCC[C@H](NC(=O)[C@H](CC(C)C)NC(=O)NNC(=O)[C@H](Cc1ccccc1)NC(=O)[C@H](CO)NC(=O)[C@H](CC(N)=O)NC(=O)[C@H](Cc1c[nH]c2ccccc12)NC(C)=O)C(=O)N[C@@H](Cc1ccccc1)C(N)=O
notes: also called Compound No. 272
For the molecule B9, the “Ca ion level-increasing activity (FLIPR)” value in assay [1] was 2 x Metastin (1-54). The IC50 in assay [2] is 540 nM.
The corresponding values for [dY]N[d4Pal]NSF[azaGly]L[Arg(Me)]F-NH2 (also called Compound No. 302) [[D-Tyr1,D-Pya(4)3,AzaGly7,Arg(Me)9]MS10] are 2 x Metastin (1-54) and 7.7 nM.
The corresponding values for Cyclohexanecarbonyl-NSF[azaGly]L[Arg(Me)]F-NH2 (also called Compound No. 278) [des(1-3)-Cyclohexanecarbonyl-[AzaGly7,Arg(Me)9]MS10] are 2 x Metastin (1-54) and 110 nM.

B10: des(1-2)-Amidino-[AzaGly7,Arg(Me)9]MS10 (peptide)
peptide: amidino-WNSF[azaGly]L[Arg(Me)]F-NH2
SMILES: CNC(=N)NCCC[C@H](NC(=O)[C@H](CC(C)C)NC(=O)NNC(=O)[C@H](Cc1ccccc1)NC(=O)[C@H](CO)NC(=O)[C@H](CC(N)=O)NC(=O)[C@H](Cc1c[nH]c2ccccc12)NC(=N)N)C(=O)N[C@@H](Cc1ccccc1)C(N)=O
notes: also called Compound No. 273
On to B10, for which, in assay [1], the “Ca ion level-increasing activity (FLIPR)” value was 5 x Metastin (1-54). In assay [2], this molecule returned an IC50 of 300 nM.
The corresponding values for YNWNSXGLRF (D-Tyr1; Pya(2)6; Arg(Me)9; C-terminal amide, also called Compound No. 281) [[D-Tyr1,Pya(2)6,Arg(Me)9]MS10] are 0.5 x Metastin (1-54) and 230 nM.

B11: [D-Pya(4)1,D-Asn2,Cha3,AzaGly7,Arg(Me)9]MS10 (peptide)
peptide: [d4Pal][dN][Cha]NSF[azaGly]L[Arg(Me)]F-NH2
modifications: N-terminus assumed
SMILES: CNC(=N)NCCC[C@H](NC(=O)[C@H](CC(C)C)NC(=O)NNC(=O)[C@H](Cc1ccccc1)NC(=O)[C@H](CO)NC(=O)[C@H](CC(N)=O)NC(=O)[C@H](CC1CCCCC1)NC(=O)[C@@H](CC(N)=O)NC(=O)[C@H](N)Cc1ccncc1)C(=O)N[C@@H](Cc1ccccc1)C(N)=O
notes: also called Compound No. 306
As for B11, the “Ca ion level-increasing activity (FLIPR)” value in assay [1] is 2 x Metastin (1-54). Moreover, the half-inhibitory concentration (IC50) in assay [2] came to 4.4 nM.

B12: [D-Pya(3)1,AzaGly7,Arg(Me)9]MS10 (peptide)
peptide: [d3Pal]NWNSF[azaGly]L[Arg(Me)]F-NH2
modifications: N-terminus assumed
SMILES: CNC(=N)NCCC[C@H](NC(=O)[C@H](CC(C)C)NC(=O)NNC(=O)[C@H](Cc1ccccc1)NC(=O)[C@H](CO)NC(=O)[C@H](CC(N)=O)NC(=O)[C@H](Cc1c[nH]c2ccccc12)NC(=O)[C@H](CC(N)=O)NC(=O)[C@H](N)Cc1cccnc1)C(=O)N[C@@H](Cc1ccccc1)C(N)=O
notes: also called Compound No. 258
On to B12, for which the “Ca ion level-increasing activity (FLIPR)” value in assay [1] is 2 x Metastin (1-54). Also, the IC50 in assay [2] amounted to 90 nM.
The corresponding values for {4‑(3-indolyl)butyryl}-NSF[azaGly]L[Arg(Me)]F-NH2 (also called Compound No. 267) [des(1-3)-4-(3-Indolyl)butyryl-[AzaGly7,Arg(Me)9]MS10] are 2 x Metastin (1-54) and 360 nM.
The corresponding values for Y[dN][4Pal]NSF[azaGly]L[Arg(Me)]F-NH2 (also called Compound No. 304) [[D-Asn2,Pya(4)3,AzaGly7,Arg(Me)9]MS10] are 3 x Metastin (1-54) and 5 nM.
The matching figures for {n‑hexanoyl}-NSF[azaGly]L[Arg(Me)]F-NH2 (also called Compound No. 277) [des(1-3)-n-Hexanoyl-[AzaGly7,Arg(Me)9]MS10]: 2 x Metastin (1-54) and 54 nM.

B13: des(1-2)-[AzaGly7,Arg(Me)9]MS10 (peptide)
peptide: WNSF[azaGly]LR(Me)F-NH2
modifications: N-terminus assumed
SMILES: CNC(=N)NCCC[C@H](NC(=O)[C@H](CC(C)C)NC(=O)NNC(=O)[C@H](Cc1ccccc1)NC(=O)[C@H](CO)NC(=O)[C@H](CC(N)=O)NC(=O)[C@@H](N)Cc1c[nH]c2ccccc12)C(=O)N[C@@H](Cc1ccccc1)C(N)=O
notes: also called Compound No. 271
Regarding B13, the “Ca ion level-increasing activity (FLIPR)” value in assay [1] is 1 x Metastin (1-54). Moreover, the half-maximal inhibitory concentration (IC50) in assay [2] is 120 nM.

B14: Endo-Phe5a-[D-Tyr1,Phe3,AzaGly7,Arg(Me)9]MS10 (peptide)
peptide: [dY]NFNSFF[azaGly]L[Arg(Me)]F-NH2
modifications: N-terminus assumed
SMILES: CNC(=N)NCCC[C@H](NC(=O)[C@H](CC(C)C)NC(=O)NNC(=O)[C@H](Cc1ccccc1)NC(=O)[C@H](Cc1ccccc1)NC(=O)[C@H](CO)NC(=O)[C@H](CC(N)=O)NC(=O)[C@H](Cc1ccccc1)NC(=O)[C@H](CC(N)=O)NC(=O)[C@H](N)Cc1ccc(O)cc1)C(=O)N[C@@H](Cc1ccccc1)C(N)=O
notes: printed in three-letter code: D-Tyr-Asn-Phe-Asn-Ser-Phe-Phe-AzaGly-Leu-Arg(Me)-Phe-NH2; also called Compound No. 270
Consider B14, for which the “Ca ion level-increasing activity (FLIPR)” value in assay [1] was 1 x Metastin (1-54). This molecule registered a half-inhibitory concentration (IC50) in assay [2] of 15 nM.
